Legend:
Test in all cases: BLI
Conditions in all cases: both partners purified
[1] = molecular target: T1, FMDV A22/IRQ/24/64 virus-like particle, VP2 93C stabilised (FMDV serotype A, A22/IRQ/24/64, stabilised)
T1 construct: copies: 60 + 60 + 60 + 60

[2] = molecular target: T2, FMDV O1/Manisa/TUR/69 virus-like particle, VP2 93C stabilised (Foot-and-mouth disease virus …, UniProt Q6PMW3, stabilised)
T2 construct: copies: 60 + 60 + 60 + 60

[3] = molecular target: T1, FMDV A22/IRQ/24/64 virus-like particle, …; remark: listed apart in the source
[4] = molecular target: T2, FMDV O1/Manisa/TUR/69 virus-like …; remark: listed apart in the source

Row | Binder | Kd [1] [nM] | koff [1] [s⁻¹] | kon [1] [M⁻¹ s⁻¹] | Kd [2] [nM] | koff [2] [s⁻¹] | kon [2] [M⁻¹ s⁻¹] | Kd [3] [nM] | koff [3] [s⁻¹] | kon [3] [M⁻¹ s⁻¹] | Kd [4] [nM] | koff [4] [s⁻¹] | kon [4] [M⁻¹ s⁻¹]
1 | Ab17, recombinant cattle IgG1/lambda antibody (antibody, V domains shown, copies: 2 + 2) VH: QVQLRESGPSSLKPSQTLSLTCAVSGFSLSTYAVGWVRQAPGKALEWVGDITSSGDTFYNPALKSRFSITKDNSKNQVSLSVGSVTPEDTATFYCTRLTCGDDCSTAWHNFDAWGQGLLVTVSS VL: SYELTQPTSVSVALGQTAKITCSGDLLDVQYTQWYQQKPGQGPVRVIYKDSERPSGISDRFSGSSSGKTATLIISGAQTEDEADYYCQSTDSSQYGIFGRGTTLTVL | 0.246 | 0.000164 | 685000 | 0.021 | 7.96e-06 | 303000 | – | – | – | – | – | –
2 | Ab34, recombinant cattle IgG1/lambda antibody (antibody, V domains shown, copies: 2 + 2) VH: QVQLRESGPSLVKPSQTLSLTCTVSGFSLTDVHVGWVRQTPGKALEWVGVICNRGAIGYNPALESRLSITEDNSKSQVSLSLSSVTTADTATYYCASSCRTEGDVGGDCDSDHFFCAWGQGLLVTVSS VL: SYELTQPTSVSVALGQTAKITCSGDLLDRQYAQWYQQKPGQGPVRVIYKDSERPSGISDRFSGSSSGKTATLTVSGAQTEDEADYYCHSADSSHYPVFGSGSTLTVL | 0.0093 | – | – | 0.00904 | – | – | – | – | – | – | – | –
3 | Ab49, recombinant cattle IgG1/lambda antibody (antibody, V domains shown, copies: 2 + 2) VH: QVQLRESGPSLVKPSQTLSLTCTVSGFSLTNYAVGWVRQAPGKAIQSLSIISTTGDTYYNPALKSRLSITKDNSKSQVSLSVSSVAPEDTATYYCVKFCGNADSAGHGWGCDYGDNENWGQGLLVTVSS VL: SYELTQPTSVSVALGQTAKITCSGDLLDEQYTQWYQQKPGQGPVRVIYKDSERPSGISDRFSGSSSGKTATLTISGAQTEDEADYYCQSFYSSTDPVFGSGTTLTVL | 0.114 | 3.61e-05 | 389000 | 0.156 | 4.9e-05 | 257000 | – | – | – | – | – | –
4 | Fab17, recombinant cattle Fab of Ab17 (Fab, V domains shown) VH: QVQLRESGPSSLKPSQTLSLTCAVSGFSLSTYAVGWVRQAPGKALEWVGDITSSGDTFYNPALKSRFSITKDNSKNQVSLSVGSVTPEDTATFYCTRLTCGDDCSTAWHNFDAWGQGLLVTVSS VL: SYELTQPTSVSVALGQTAKITCSGDLLDVQYTQWYQQKPGQGPVRVIYKDSERPSGISDRFSGSSSGKTATLIISGAQTEDEADYYCQSTDSSQYGIFGRGTTLTVL | – | – | – | – | – | – | 19.6 | 0.0298 | 1.52e+06 | 5.93 | 0.0117 | 1.19e+06
5 | Fab34, recombinant cattle Fab of Ab34 (Fab, V domains shown) VH: QVQLRESGPSLVKPSQTLSLTCTVSGFSLTDVHVGWVRQTPGKALEWVGVICNRGAIGYNPALESRLSITEDNSKSQVSLSLSSVTTADTATYYCASSCRTEGDVGGDCDSDHFFCAWGQGLLVTVSS VL: SYELTQPTSVSVALGQTAKITCSGDLLDRQYAQWYQQKPGQGPVRVIYKDSERPSGISDRFSGSSSGKTATLTVSGAQTEDEADYYCHSADSSHYPVFGSGSTLTVL | – | – | – | – | – | – | 9.9 | – | – | 12.3 | – | –
6 | Fab49, recombinant cattle Fab of Ab49 (Fab, V domains shown) VH: QVQLRESGPSLVKPSQTLSLTCTVSGFSLTNYAVGWVRQAPGKAIQSLSIISTTGDTYYNPALKSRLSITKDNSKSQVSLSVSSVAPEDTATYYCVKFCGNADSAGHGWGCDYGDNENWGQGLLVTVSS VL: SYELTQPTSVSVALGQTAKITCSGDLLDEQYTQWYQQKPGQGPVRVIYKDSERPSGISDRFSGSSSGKTATLTISGAQTEDEADYYCQSFYSSTDPVFGSGTTLTVL | – | – | – | – | – | – | 4.44 | 0.00349 | 749000 | 6.37 | 0.0029 | 553000

From paper PMC13216289 (NPJ Vaccines, 2026)
